Test results from patent publication US20170298096A1 (CANIMGUIDE THERAPEUTICS, published 2017).

T1: His-tagged P3028 peptide (PGE73) (human)
T1 construct: albumin-derived peptide, in solution at 0.5 ug/mL; not shown: His-tag
T1 peptide: VFDEFKPLVEEPQNLIK


Target: T1, His-tagged P3028 peptide (PGE73)
Test: PEPSCAN ELISA, peptide on card
Protocol: After washing, the peroxidase substrate 2,2′-azine-di-3-ethylbenzthiazoline sulfonate (ABTS) and 2 μL of 3% H2O2 were added. The binding capacity of the mAb was measured as a color development at 405 nm (optical density, OD405). The color development was quantified with a charge-coupled device (CCD)—camera and an image processing system.
The OD405-values obtained by a CCD-camera was considered as raw data values (“rampo values,” “rampo units,” or “rampo scores”). […] First the CCD-camera made a picture of the card before peroxidase coloring and then again a picture after the peroxidase coloring. […] These values were copied into an excel file and labeled as a raw data file. One follow-up manipulation was allowed. Sometimes a well can contain an air-bubble resulting in a false-positive value. If manual inspection of the cards detect an air-bubble the value are set to 0 for that well.
KKLDTFFVKRSLFTER [SEQ ID NO: 340 KKLDTFFVKRSLFTER] was tested, and the “RAMPO Score” value was 439.
With KKLDTFFVKSSLFTER [SEQ ID NO: 341 KKLDTFFVKSSLFTER] the “RAMPO Score” value was 351.
With KKLDTFFVKTSLFTER [SEQ ID NO: 342 KKLDTFFVKTSLFTER] the “RAMPO Score” value was 399.
KKLDTFFVKVSLFTER [SEQ ID NO: 343 KKLDTFFVKVSLFTER] was tested, and the “RAMPO Score” value was 658.
For KKLDTFFVKYSLFTER [SEQ ID NO: 344 KKLDTFFVKYSLFTER], the “RAMPO Score” value was 382.
With KKLDTFFVKLHLFTER [SEQ ID NO: 345 KKLDTFFVKLHLFTER] the “RAMPO Score” value was 535.
With KKLDTFFVKLMLFTER [SEQ ID NO: 346 KKLDTFFVKLMLFTER] the “RAMPO Score” value was 744.
With KKLDTFFVKLNLFTER [SEQ ID NO: 347 KKLDTFFVKLNLFTER] the “RAMPO Score” value was 451.
KKLDTFFVKLQLFTER (also called 30678) [SEQ ID NO: 348 KKLDTFFVKLQLFTER] was tested, and the “RAMPO Score” value was 768.
KKLDTFFVKLTLFTER [SEQ ID NO: 349 KKLDTFFVKLTLFTER] was tested, and the “RAMPO Score” value was 520.
KKLDTFFVKLSAFTER [SEQ ID NO: 350 KKLDTFFVKLSAFTER] was tested, and the “RAMPO Score” value was 462.
For KKLDTFFVKLSHFTER [SEQ ID NO: 351 KKLDTFFVKLSHFTER], the “RAMPO Score” value was 460.
With KKLDTFFVKLSIFTER [SEQ ID NO: 352 KKLDTFFVKLSIFTER] the “RAMPO Score” value was 456.
For KKLDTFFVKLSMFTER [SEQ ID NO: 353 KKLDTFFVKLSMFTER], the “RAMPO Score” value was 499.
KKLDTFFVKLSNFTER [SEQ ID NO: 354 KKLDTFFVKLSNFTER] was tested, and the “RAMPO Score” value was 462.
With KKLDTFFVKLSQFTER [SEQ ID NO: 355 KKLDTFFVKLSQFTER] the “RAMPO Score” value was 651.
KKLDTFFVKLSRFTER [SEQ ID NO: 356 KKLDTFFVKLSRFTER] was tested, and the “RAMPO Score” value was 483.
For KKLDTFFVKLSSFTER [SEQ ID NO: 357 KKLDTFFVKLSSFTER], the “RAMPO Score” value was 478.
KKLDTFFVKLSTFTER [SEQ ID NO: 358 KKLDTFFVKLSTFTER] was tested, and the “RAMPO Score” value was 437.
With KKLDTFFVKLSVFTER [SEQ ID NO: 359 KKLDTFFVKLSVFTER] the “RAMPO Score” value was 545.
In the case of KKLDTFFVKLSWFTER [SEQ ID NO: 360 KKLDTFFVKLSWFTER], the “RAMPO Score” value is reported as 409.
For KKLDTFFVKLSLATER [SEQ ID NO: 361 KKLDTFFVKLSLATER], the “RAMPO Score” value was 525.
For KKLDTFFVKLSLCTER [SEQ ID NO: 362 KKLDTFFVKLSLCTER], the “RAMPO Score” value was 400.
In the case of KKLDTFFVKLSLGTER [SEQ ID NO: 363 KKLDTFFVKLSLGTER], the “RAMPO Score” value is reported as 531.
KKLDTFFVKLSLHTER [SEQ ID NO: 364 KKLDTFFVKLSLHTER] was tested, and the “RAMPO Score” value was 1050.
With KKLDTFFVKLSLITER [SEQ ID NO: 365 KKLDTFFVKLSLITER] the “RAMPO Score” value was 468.
With KKLDTFFVKLSLLTER [SEQ ID NO: 366 KKLDTFFVKLSLLTER] the “RAMPO Score” value was 448.
For KKLDTFFVKLSLMTER (also called 30677) [SEQ ID NO: 367 KKLDTFFVKLSLMTER], the “RAMPO Score” value was 1190.
For KKLDTFFVKLSLNTER [SEQ ID NO: 368 KKLDTFFVKLSLNTER], the “RAMPO Score” value was 862.
